Results as given in patent WO2014037419A1 (dated 2014).

Columns and labels:
[1] = target: T1, Mouse CD74 on cells (C57Black/6 PECs, MC-38, 3LL) (mouse) (UniProt P04441); assay: FACS competition, PECs of WT mice, APC-labeled MIF 200ng as competitor/tracer plus Nb_49 (5 ug or 0.3 nM)
T1 sequence: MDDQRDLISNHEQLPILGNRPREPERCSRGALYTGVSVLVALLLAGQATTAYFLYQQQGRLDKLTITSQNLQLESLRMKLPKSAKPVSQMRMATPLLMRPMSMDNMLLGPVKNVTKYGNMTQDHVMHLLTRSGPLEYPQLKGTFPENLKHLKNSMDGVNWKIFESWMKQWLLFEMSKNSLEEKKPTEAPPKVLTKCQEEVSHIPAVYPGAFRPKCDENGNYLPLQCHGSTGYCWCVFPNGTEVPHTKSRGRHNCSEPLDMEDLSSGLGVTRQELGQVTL

[2] = target: T1, Mouse CD74 on cells (C57Black/6 PECs, MC-38, 3LL) (mouse); assay: FACS competition, PECs of MIF-/- mice, APC-labeled MIF 200ng as competitor/tracer plus Nb_49 (5 ug or 0.3 nM)
[3] = target: T2, Recombinant human CD74 73-232 (human, UniProt P04233 73-296); assay: BIAcore SPR, biotinylated Nb_49 on streptavidin chip, recombinant human CD74 73-232 at 0.05-500 nM as analyte
T2 construct: Bought from R&D Systems (NP_004346.1); The entry includes the N-terminal hemagglutinin tag; also called R&D systems 3590-CD
T2 sequence: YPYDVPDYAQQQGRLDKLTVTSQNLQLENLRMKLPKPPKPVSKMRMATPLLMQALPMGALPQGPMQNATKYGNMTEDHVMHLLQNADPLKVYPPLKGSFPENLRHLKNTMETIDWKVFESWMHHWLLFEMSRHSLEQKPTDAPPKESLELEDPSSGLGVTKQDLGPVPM

[4] = target: T1, Mouse CD74 on cells (C57Black/6 PECs, MC-38, 3LL) (mouse); assay: FACS, PECs of WT mice, APC-labeled MIF 200ng alone (cells without MIF: 22.4)
[5] = target: T1, Mouse CD74 on cells (C57Black/6 PECs, MC-38, 3LL) (mouse); assay: FACS, PECs of MIF-/- mice, APC-labeled MIF 200ng alone (cells without MIF: 25.6)
[6] = target: T1, Mouse CD74 on cells (C57Black/6 PECs, MC-38, 3LL) (mouse); assay: FACS, PECs of WT mice, APC-labeled MIF 200ng pre-incubated with the small molecule ISO-1 (20 nM)
[7] = target: T1, Mouse CD74 on cells (C57Black/6 PECs, MC-38, 3LL) (mouse); assay: FACS, PECs of MIF-/- mice, APC-labeled MIF 200ng pre-incubated with the small molecule ISO-1 (20 nM)

B1: NbhCD74n49 (VHH)
VHH: QVQLQESGGGSVQAGGSLRLSCVASGLVYSLKAYDWGWARQAPGKECELVGRIMPNGATVYIDSVKGRFIISRENSNNTVYLQMNSLKFEDTAVYYCARVGDPSGGWCKGQGTQVTVSS
notes: also called Nb_49; NB_49
Which mean fluorescence intensity of APC-labeled MIF bound to the cells [1] does the source give for B1 here?
The mean fluorescence intensity of APC-labeled MIF bound to the cells was 46.2.

And the mean fluorescence intensity of APC-labeled MIF bound to the cells [2]?
The mean fluorescence intensity of APC-labeled MIF bound to the cells was 69.4.

And the Kd [3]?
The Kd was 5.73 nM.

What about the koff [3] of the same binder?
Its koff is 0.000581 s⁻¹.

What about the kon [3] of the same binder?
Its kon is 102000 M⁻¹ s⁻¹.

B2: Recombinant human MIF 2-115 (ligand)
chain: PMFIVNTNVPRASVPDGFLSELTQQLAQATGKPPQYIAVHVVPDQLMAFGGSSEPCALCSLHSIGKIGGAQNRSYSKLLCGLLAERLRISPDRVYINYYDMNAASVGWNNSTFA
B2 was tested. Which mean fluorescence intensity of APC-labeled MIF bound to the cells [4] did it give?
Its mean fluorescence intensity of APC-labeled MIF bound to the cells is 64.8.

And the mean fluorescence intensity of APC-labeled MIF bound to the cells [5]?
The mean fluorescence intensity of APC-labeled MIF bound to the cells was 120.

What about the mean fluorescence intensity of APC-labeled MIF bound to the cells [6] of the same binder?
Its mean fluorescence intensity of APC-labeled MIF bound to the cells is 49.9.

What about the mean fluorescence intensity of APC-labeled MIF bound to the cells [7] of the same binder?
The mean fluorescence intensity of APC-labeled MIF bound to the cells was 61.
